According to the Immune Epitope Database (IEDB):

Experiments:
Test in all cases: IEDB peptide-MHC binding, purified MHC/competitive/radioactivity; ≥ and ≤ were set here for values at or beyond the usual limits of such assays
[1] = target: HLA-A*02:01
[2] = target: HLA-A*02:03
[3] = target: HLA-A*02:02
[4] = target: HLA-A*02:06
[5] = target: HLA-A*68:02
[6] = source organism: Vaccinia virus WR
[7] = source organism: Influenza A virus
[8] = source organism: Hepacivirus hominis
[9] = source organism: Mammarenavirus whitewaterense
[10] = source organism: Mammarenavirus lassaense
[11] = source organism: Mammarenavirus choriomeningitidis

Sequence | IC50 [1, 6] | IC50 [2, 6] | IC50 [3, 6] | IC50 [4, 6] | IC50 [5, 6] | also measured
IISLFYTFAI | 290 nM | 44 nM | 108 nM | 146 nM | 144 nM | –
YVGDTSMMVI | 803 nM | 220 nM | 408 nM | 324 nM | 72 nM | –
SIVCIVAAV | 5.3 nM | 2.8 nM | 3.9 nM | 3.5 nM | 0.55 nM | –
IIYSKAGNIL | 542 nM | 110 nM | 8.5 nM | 342 nM | 3920 nM | –
NLILNFLDWI | 4390 nM | 283 nM | 1690 nM | 443 nM | 3710 nM | –
GTIILNKIV | 3890 nM | 3400 nM | 1190 nM | 1430 nM | 926 nM | –
MQIAILVTTV | – | – | – | – | – | IC50 [1, 7]: 79 nM; IC50 [2, 7]: 6 nM; IC50 [3, 7]: 40 nM; IC50 [4, 7]: 61 nM; IC50 [5, 7]: 129 nM
LIQDWIPPL | – | – | – | – | – | IC50 [1, 8]: 97 nM; IC50 [2, 8]: 177 nM; IC50 [3, 8]: 110 nM; IC50 [4, 8]: 54 nM; IC50 [5, 8]: 1420 nM
KQYDSTDFKM | 309 nM | 3280 nM | 8.4 nM | 107 nM | 3540 nM | –
NTTTFITVLT | 559 nM | 596 nM | 1960 nM | 600 nM | 34 nM | –
YCNYTKFWYV | – | – | – | – | – | IC50 [1, 9]: 75 nM; IC50 [2, 9]: 102 nM; IC50 [3, 9]: 322 nM; IC50 [4, 9]: 6.5 nM; IC50 [5, 9]: 490 nM
SLTTIGTIA | 133 nM | 3.7 nM | 1 nM | 489 nM | 323 nM | –
FMYTKHSML | 20 nM | 0.39 nM | 2.4 nM | 222 nM | 3540 nM | –
FISSFLLPLT | 62 nM | 44 nM | 39 nM | 51 nM | 982 nM | –
GTSAAAYFV | – | – | – | – | – | IC50 ([1]; source organism: SARS-CoV1): 176 nM; IC50 ([2]; source organism: SARS-CoV1): 202 nM; IC50 ([3]; source organism: SARS-CoV1): 35 nM; IC50 ([4]; source organism: SARS-CoV1): 91 nM; IC50 ([5]; source organism: SARS-CoV1): 14 nM
FLLPLTSLVI | 0.84 nM | 5.1 nM | 11 nM | 2.5 nM | 1020 nM | –
TLNTLITLIL | 45 nM | 7.1 nM | 150 nM | 826 nM | 1140 nM | –
YLMCLSPLMA | – | – | – | – | – | IC50 ([1]; source organism: SARS-CoV1): 0.65 nM; IC50 ([2]; source organism: SARS-CoV1): 0.13 nM; IC50 ([3]; source organism: SARS-CoV1): 0.24 nM; IC50 ([4]; source organism: SARS-CoV1): 1.3 nM; IC50 ([5]; source organism: SARS-CoV1): 166 nM
TVIKTLLEV | – | – | – | – | – | IC50 [1, 9]: 276 nM; IC50 [2, 9]: 53 nM; IC50 [3, 9]: 2020 nM; IC50 [4, 9]: 17 nM; IC50 [5, 9]: 2.8 nM
AVIPFDDIV | 915 nM | 241 nM | 313 nM | 42 nM | 903 nM | –
WLKDSAIMV | 326 nM | 28 nM | 191 nM | 2280 nM | 1010 nM | –
FVDEFYAYL | – | – | – | – | – | IC50 ([1]; source organism: SARS-CoV1): 0.22 nM; IC50 ([2]; source organism: SARS-CoV1): 2.6 nM; IC50 ([3]; source organism: SARS-CoV1): 0.089 nM; IC50 ([4]; source organism: SARS-CoV1): 0.36 nM; IC50 ([5]; source organism: SARS-CoV1): 38 nM
HAFLCLFLL | – | – | – | – | – | IC50 ([1]; source organism: SARS-CoV1): 2.1 nM; IC50 ([2]; source organism: SARS-CoV1): 46 nM; IC50 ([3]; source organism: SARS-CoV1): 21 nM; IC50 ([4]; source organism: SARS-CoV1): 1.2 nM; IC50 ([5]; source organism: SARS-CoV1): 10 nM
LMANLAPHLL | – | – | – | – | – | IC50 ([1]; source organism: SARS-CoV1): 30 nM; IC50 ([2]; source organism: SARS-CoV1): 1.5 nM; IC50 ([3]; source organism: SARS-CoV1): 0.23 nM; IC50 ([4]; source organism: SARS-CoV1): 115 nM; IC50 ([5]; source organism: SARS-CoV1): 1170 nM
YLMCLSPLM | – | – | – | – | – | IC50 ([1]; source organism: SARS-CoV1): 0.34 nM; IC50 ([2]; source organism: SARS-CoV1): 0.3 nM; IC50 ([3]; source organism: SARS-CoV1): 0.14 nM; IC50 ([4]; source organism: SARS-CoV1): 1.1 nM; IC50 ([5]; source organism: SARS-CoV1): 1240 nM
NTIDKSSPL | 972 nM | 27 nM | 82 nM | 19 nM | 5.7 nM | –
MLVCGDDLVV | – | – | – | – | – | IC50 [1, 8]: 97 nM; IC50 [2, 8]: 102 nM; IC50 [3, 8]: 45 nM; IC50 [4, 8]: 157 nM; IC50 [5, 8]: 3060 nM

Sequence | IC50 [1, 6] | IC50 [2, 6] | IC50 [3, 6] | IC50 [4, 6] | IC50 [5, 6] | also measured
FLAFLLFLV | – | – | – | – | – | IC50 ([1]; source organism: SARS-CoV1): 8.3 nM; IC50 ([2]; source organism: SARS-CoV1): 58 nM; IC50 ([3]; source organism: SARS-CoV1): 1.8 nM; IC50 ([4]; source organism: SARS-CoV1): 9 nM; IC50 ([5]; source organism: SARS-CoV1): 66 nM
ILFILFFAYV | 139 nM | 366 nM | 132 nM | 1210 nM | 320 nM | –
STDQDTMLFA | 3520 nM | 4700 nM | 646 nM | 2020 nM | 1550 nM | –
DVSLSAYII | 1500 nM | 755 nM | 691 nM | 4380 nM | 591 nM | –
MAGVEVRYI | 2310 nM | 201 nM | 293 nM | 2050 nM | 583 nM | –
NLWNTFTRL | – | – | – | – | – | IC50 ([1]; source organism: SARS-CoV1): 6.9 nM; IC50 ([2]; source organism: SARS-CoV1): 194 nM; IC50 ([3]; source organism: SARS-CoV1): 24 nM; IC50 ([4]; source organism: SARS-CoV1): 166 nM; IC50 ([5]; source organism: SARS-CoV1): 391 nM
YIPPCQCTV | 107 nM | 445 nM | 196 nM | 92 nM | 228 nM | –
IIFWFSLEI | – | – | – | – | – | IC50 ([1]; source organism: SARS-CoV1): 9 nM; IC50 ([2]; source organism: SARS-CoV1): 87 nM; IC50 ([3]; source organism: SARS-CoV1): 1.8 nM; IC50 ([4]; source organism: SARS-CoV1): 4.6 nM; IC50 ([5]; source organism: SARS-CoV1): 520 nM
FLIVAALVFL | – | – | – | – | – | IC50 ([1]; source organism: SARS-CoV1): 11 nM; IC50 ([2]; source organism: SARS-CoV1): 162 nM; IC50 ([3]; source organism: SARS-CoV1): 3 nM; IC50 ([4]; source organism: SARS-CoV1): 3.6 nM; IC50 ([5]; source organism: SARS-CoV1): 1090 nM
LNCLSLLLSV | – | – | – | – | – | IC50 [1, 10]: 191 nM; IC50 [2, 10]: 230 nM; IC50 [3, 10]: 124 nM; IC50 [4, 10]: 251 nM; IC50 [5, 10]: 4070 nM
AVYNFATCGI | – | – | – | – | – | IC50 [1, 11]: 137 nM; IC50 [2, 11]: 7.3 nM; IC50 [3, 11]: 25 nM; IC50 [4, 11]: 25 nM; IC50 [5, 11]: 13 nM
ILATLNTLI | 15 nM | 0.23 nM | 0.41 nM | 40 nM | 2310 nM | –
TILDDNLYKV | 239 nM | 1630 nM | 1080 nM | 49 nM | 1420 nM | –
NVIEDITFL | 304 nM | 300 nM | 146 nM | 26 nM | 31 nM | –
EVERLMELPV | 1980 nM | 1430 nM | 2460 nM | 3630 nM | 1220 nM | –
YLRLYIILA | 190 nM | 52 nM | 8.3 nM | 4180 nM | 2720 nM | –
FLLPSLATV | – | – | – | – | – | IC50 ([1]; source organism: SARS-CoV1): 0.34 nM; IC50 ([2]; source organism: SARS-CoV1): 0.2 nM; IC50 ([3]; source organism: SARS-CoV1): 0.13 nM; IC50 ([4]; source organism: SARS-CoV1): 0.41 nM; IC50 ([5]; source organism: SARS-CoV1): 16 nM
TIDNIVTSL | 2670 nM | 1040 nM | 178 nM | 2730 nM | 1860 nM | –
SLVKPTVYV | – | – | – | – | – | IC50 ([1]; source organism: SARS-CoV1): 106 nM; IC50 ([2]; source organism: SARS-CoV1): 37 nM; IC50 ([3]; source organism: SARS-CoV1): 108 nM; IC50 ([4]; source organism: SARS-CoV1): 473 nM; IC50 ([5]; source organism: SARS-CoV1): 145 nM
SLSNLDFRL | 2880 nM | 1760 nM | 1310 nM | 1380 nM | 23 nM | –
VLAGGVLAAV | – | – | – | – | – | IC50 [1, 8]: 7.8 nM; IC50 [2, 8]: 6.7 nM; IC50 [3, 8]: 4.3 nM; IC50 [4, 8]: 33 nM; IC50 [5, 8]: 59 nM
FVMCLEAKT | 3840 nM | 1940 nM | 609 nM | 979 nM | 1510 nM | –
LLAPITAYA | – | – | – | – | – | IC50 [1, 8]: 2.9 nM; IC50 [2, 8]: 0.61 nM; IC50 [3, 8]: 0.27 nM; IC50 [4, 8]: 5.3 nM; IC50 [5, 8]: 1.5 nM
SMYVIPDELI | 380 nM | 114 nM | 31 nM | 492 nM | 1740 nM | –
NMINKLYGYA | 88 nM | 0.44 nM | 1.6 nM | 137 nM | 292 nM | –
LIVAALVFL | – | – | – | – | – | IC50 ([1]; source organism: SARS-CoV1): 18 nM; IC50 ([2]; source organism: SARS-CoV1): 136 nM; IC50 ([3]; source organism: SARS-CoV1): 9.4 nM; IC50 ([4]; source organism: SARS-CoV1): 11 nM; IC50 ([5]; source organism: SARS-CoV1): 302 nM
